Measurements as given in PMC3048900.

Tests used:
Asp19 = Asp19 (UniProt position 362, WTGMIDGWYGY); assay: NMR; details: DPC micelle-bound helical hairpin
Glu11 = Glu11 (UniProt position 354, IAGFIEGGWTG); assay: NMR; details: DPC micelle-bound helical hairpin

## Hemagglutinin HA2 fusion peptide HAfp23 (Influenza A virus (serotype H1; strain not stated))
Asp19
  pKa: 4.35±0.02
Glu11
  pKa: 5.31±0.01
